One may read the stoichiometry N as the number of molecules, sites or subunits per partner or assembly. Usually Kd stands for a measure of binding affinity in units of concentration.

For three molecules, stoichiometry N and Kd results are on record in PMC4251946, “The mechanism of H171T resistance reveals the importance of Nδ-protonated His171 for the binding of allosteric inhibitor BI-D to HIV-1 integrase” (Retrovirology, 2014).

The target of experiment [1] is H171T HIV-1 integrase (IN) (HIV-1). Kind of experiment: SEC; Superdex 200 10/300 GL; 20 mM HEPES pH 6.8, 750 mM NaCl, 10 mM MgSO4, 0.2 mM EDTA, 5 mM BME, 5% glycerol, 200 μM ZnCl2; 4°C; tetramer and monomer peaks. For orientation: SEC sorts molecules by how far they enter the pores of the column.
Experiment [2] has the same target. Kind of experiment: AlphaScreen or HTRF.
The target of experiment [3] is T1, LEDGF/p75 (UniProt O75475 1-530).
T1 construct: source: E. coli, purified as described previously [37]; not shown: FLAG, C-terminal, kept
Kind of experiment: AlphaScreen or HTRF. As to conditions: both partners purified. (Alpha assays give light when donor and acceptor beads are brought close together.)

Molecule H171T HIV-1 integrase (IN) (enzyme) yielded a stoichiometry N in experiment [1] of 4.

“LEDGF/p75 (from UniProt O75475 1-530) (natural protein)” returned a Kd in experiment [2] of 10.5 nM.

B1: WT HIV-1 integrase (IN) (enzyme)
chain: FLDGIDKAQEEHEKYHSNWRAMASDFNLPPVVAKEIVASCDKCQLKGEAMHGQVDCSPGIWQLDCTHLEGKVILVAVHVASGYIEAEVIPAETGQETAYFLLKLAGRWPVKTVHTDNGSNFTSTTVKAACWWAGIKQEFGIPYNPQSQGVIESMNKELKKIIGQVRDQAEHLKTAVQMAVFIHNFKRKGGIGGYSAGERIVDIIATDIQTKELQKQITKIQNFRVYYRDSRDPVWKGPAKLLWKGEGAVVIQDNSDIKVVPRRKAKIIRDYGKQMAGDDCVASRQDED
notes: also called WT IN; source: E. coli, purified as described previously [37]; not shown: 6xHis, N-terminal, kept
In turn, B1 yielded a dissociation constant (Kd) in experiment [3] of 3.3 ± 0.3 nM.
